One assay concerns the target T1, 4H233-AA.
T1 chain: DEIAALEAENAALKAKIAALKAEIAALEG
Nature of the assay: two-hybrid library CCmax.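 Note: natural log of median RNA to DNA barcode read ratio; higher means stronger binding.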

The next assay addresses T2, 4H2512-AA.
T2 chain: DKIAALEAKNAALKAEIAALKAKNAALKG
Nature of the assay: two-hybrid library CCmax.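 Note: natural log of median RNA to DNA barcode read ratio; higher means stronger binding.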 To be noted: mean of both orientations.

Another assay has as its target T3, 4H2646-AA.
T3 chain: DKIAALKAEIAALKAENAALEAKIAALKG
As to the kind of experiment: two-hybrid library CCmax.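 Note: natural log of median RNA to DNA barcode read ratio; higher means stronger binding.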 The conditions noted are these: mean of both orientations.

The target of the next assay is T4, 4H2687-AA.
T4 chain: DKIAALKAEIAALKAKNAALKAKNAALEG
Nature of the assay: two-hybrid library CCmax.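 Note: natural log of median RNA to DNA barcode read ratio; higher means stronger binding.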 To be noted: mean of both orientations.

In another assay the target is T5, 4H2705-AA.
T5 chain: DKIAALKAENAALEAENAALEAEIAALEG
Nature of the assay: two-hybrid library CCmax.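 Note: natural log of median RNA to DNA barcode read ratio; higher means stronger binding.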 To be noted: mean of both orientations.

Another assay addresses T6, 4H2758-AA.
T6 chain: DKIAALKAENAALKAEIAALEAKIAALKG
As to the kind of experiment: two-hybrid library CCmax.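 Note: natural log of median RNA to DNA barcode read ratio; higher means stronger binding.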 The conditions noted are these: mean of both orientations.

In another assay the target is T7, 4H278-AA.
T7 chain: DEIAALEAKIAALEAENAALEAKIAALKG
As to the kind of experiment: two-hybrid library CCmax. The conditions noted are these: mean of both orientations.

In a further assay the target is T8, 4H2873-AA.
T8 chain: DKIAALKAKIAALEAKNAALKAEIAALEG
Nature of the assay: two-hybrid library CCmax. To be noted: mean of both orientations.

For another assay, the target named is T9, 4H2985-AA.
T9 chain: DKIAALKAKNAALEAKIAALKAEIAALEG
Nature of the assay: two-hybrid library CCmax. To be noted: mean of both orientations.

In another assay the target is T10, 4H3134-AA.
T10 chain: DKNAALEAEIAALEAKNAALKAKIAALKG
Nature of the assay: two-hybrid library CCmax. To be noted: mean of both orientations.

For a further assay, the target named is T11, 4H3409-AA.
T11 chain: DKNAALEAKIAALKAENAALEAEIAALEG
Nature of the assay: two-hybrid library CCmax.

Another assay addresses T12, 4H3595-AA.
T12 chain: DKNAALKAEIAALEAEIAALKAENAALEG
As to the kind of experiment: two-hybrid library CCmax.

For another assay, the target named is T13, 4H3625-AA.
T13 chain: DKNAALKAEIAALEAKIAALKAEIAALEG
As to the kind of experiment: two-hybrid library CCmax. To be noted: mean of both orientations.

The target of another assay is T14, 4H390-AA.
T14 chain: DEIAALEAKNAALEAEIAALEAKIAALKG
As to the kind of experiment: two-hybrid library CCmax. The conditions noted are these: mean of both orientations.

A further assay deals with T15, 4H3940-AA.
T15 chain: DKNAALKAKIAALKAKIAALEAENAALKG
Nature of the assay: two-hybrid library CCmax. To be noted: mean of both orientations.

In the next assay the target is T16, 4H510-AA.
T16 chain: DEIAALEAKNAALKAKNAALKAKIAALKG
Nature of the assay: two-hybrid library CCmax. To be noted: mean of both orientations.

In another assay the target is T17, 4H775-AA.
T17 chain: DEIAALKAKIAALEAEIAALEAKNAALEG
Nature of the assay: two-hybrid library CCmax. The conditions noted are these: mean of both orientations.

The target in a further assay is T18, 4H816-AA.
T18 chain: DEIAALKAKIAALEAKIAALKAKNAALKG
As to the kind of experiment: two-hybrid library CCmax. To be noted: mean of both orientations.

A further assay deals with T19, 4H87-AA.
T19 chain: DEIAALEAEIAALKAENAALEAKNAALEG
Nature of the assay: two-hybrid library CCmax.

The target in a further assay is T20, 4H4073-bA.
T20 chain: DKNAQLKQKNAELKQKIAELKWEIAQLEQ
As to the kind of experiment: two-hybrid library CCNG1.

Another assay has as its target T21, 4H457-bA.
T21 chain: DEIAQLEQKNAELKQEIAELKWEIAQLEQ
As to the kind of experiment: two-hybrid library CCNG1.

A further assay has as its target T22, 4H575-bA.
T22 chain: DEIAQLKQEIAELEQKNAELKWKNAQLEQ
As to the kind of experiment: two-hybrid library CCNG1.

The next assay addresses T23, 4H683-bA.
T23 chain: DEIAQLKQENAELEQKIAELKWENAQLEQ
Nature of the assay: two-hybrid library CCNG1.

A further assay concerns the target T24, 4H754-bA.
T24 chain: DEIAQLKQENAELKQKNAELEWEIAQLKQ
Nature of the assay: two-hybrid library CCNG1.

The target of another assay is T25, 4H780-bA.
T25 chain: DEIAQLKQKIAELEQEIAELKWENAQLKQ
Nature of the assay: two-hybrid library CCNG1.

Another assay addresses T26, 4H797-bA.
T26 chain: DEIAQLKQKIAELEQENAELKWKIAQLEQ
As to the kind of experiment: two-hybrid library CCNG1.

A further assay addresses T27, 4H855-bA.
T27 chain: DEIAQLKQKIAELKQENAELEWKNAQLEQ
Nature of the assay: two-hybrid library CCNG1.

Another assay concerns the target T28, 4H918-bA.
T28 chain: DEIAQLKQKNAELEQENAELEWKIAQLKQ
Nature of the assay: two-hybrid library CCNG1.

The target in a further assay is T29, 4H949-bN.
T29 chain: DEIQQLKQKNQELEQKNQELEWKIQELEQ
Nature of the assay: two-hybrid library CCNG1.

The next assay concerns the target T30, 4H953-bA.
T30 chain: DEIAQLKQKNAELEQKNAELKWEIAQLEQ
As to the kind of experiment: two-hybrid library CCNG1.

The next assay has as its target T31, 4H968-bA.
T31 chain: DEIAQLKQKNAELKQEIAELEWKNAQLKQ
As to the kind of experiment: two-hybrid library CCNG1.

For the next assay, the target named is T32, P3mSN.
T32 chain: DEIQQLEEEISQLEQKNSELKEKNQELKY
Nature of the assay: two-hybrid library CCNG1.

The target of a further assay is T33, P5mSN.
T33 chain: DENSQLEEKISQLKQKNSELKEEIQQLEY
Nature of the assay: two-hybrid library CCNG1.

In a further assay the target is T34, P6mSN.
T34 chain: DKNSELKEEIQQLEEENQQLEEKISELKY
As to the kind of experiment: two-hybrid library CCNG1.

Another assay addresses T35, P7mSN.
T35 chain: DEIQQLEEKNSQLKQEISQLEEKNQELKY
Nature of the assay: two-hybrid library CCNG1.

The target of another assay is T36, P8mSN.
T36 chain: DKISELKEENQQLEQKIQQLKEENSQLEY
As to the kind of experiment: two-hybrid library CCNG1.

In another assay the target is T37, P9mSN.
T37 chain: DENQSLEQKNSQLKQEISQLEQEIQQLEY
Nature of the assay: two-hybrid library CCNG1.

In another assay the target is T38, P4mS.
T38 chain: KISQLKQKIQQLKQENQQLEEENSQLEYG
Nature of the assay: two-hybrid library CC1.

The target of the next assay is T39, P5SC1.
T39 chain: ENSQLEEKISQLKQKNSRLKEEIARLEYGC
As to the kind of experiment: two-hybrid library CC1. The conditions noted are these: mean of both orientations.

For a further assay, the target named is T40, P5SC2.
T40 chain: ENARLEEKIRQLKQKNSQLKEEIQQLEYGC
Nature of the assay: two-hybrid library CC1. To be noted: mean of both orientations.

For another assay, the target named is T41, P5.
T41 chain: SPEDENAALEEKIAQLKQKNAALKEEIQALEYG
Nature of the assay: two-hybrid library CC1. To be noted: mean of both orientations.

The next assay addresses T42, P5mS.
T42 chain: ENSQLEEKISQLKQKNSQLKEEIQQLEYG
Nature of the assay: two-hybrid library CC1. To be noted: mean of both orientations.

The target in a further assay is T43, P6SC1.
T43 chain: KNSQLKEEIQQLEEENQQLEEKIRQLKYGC
Nature of the assay: two-hybrid library CC1. To be noted: mean of both orientations.

The next assay addresses T44, P6SC2.
T44 chain: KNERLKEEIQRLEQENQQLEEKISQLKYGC
Nature of the assay: two-hybrid library CC1. To be noted: mean of both orientations.

For another assay, the target named is T45, P6.
T45 chain: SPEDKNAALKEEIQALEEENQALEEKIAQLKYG
As to the kind of experiment: two-hybrid library CC1. To be noted: mean of both orientations.

The next assay addresses T46, P6mS.
T46 chain: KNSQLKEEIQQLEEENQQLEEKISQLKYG
As to the kind of experiment: two-hybrid library CC1. To be noted: mean of both orientations.

Another assay addresses T47, P7.
T47 chain: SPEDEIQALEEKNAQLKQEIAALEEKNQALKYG
Nature of the assay: two-hybrid library CC1. The conditions noted are these: mean of both orientations.

Another assay deals with T48, P7mS.
T48 chain: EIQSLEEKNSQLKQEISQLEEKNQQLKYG
Nature of the assay: two-hybrid library CC1. The conditions noted are these: mean of both orientations.

A further assay addresses T49, P8.
T49 chain: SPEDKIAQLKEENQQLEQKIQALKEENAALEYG
As to the kind of experiment: two-hybrid library CC1. The conditions noted are these: mean of both orientations.

The next assay has as its target T50, P8mS.
T50 chain: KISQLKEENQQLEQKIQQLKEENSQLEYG
Nature of the assay: two-hybrid library CC1. The conditions noted are these: mean of both orientations.

For another assay, the target named is T51, P9.
T51 chain: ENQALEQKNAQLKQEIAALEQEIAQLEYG
Nature of the assay: two-hybrid library CC1. To be noted: mean of both orientations.

B1: 4H233-AA (peptide)
chain: DEIAALEAENAALKAKIAALKAEIAALEG
Consider B1, for which the interaction score is 1.43 with 4H233-AA; 0.368 in the assay with 4H2512-AA; 1.88 with 4H2646-AA; -1.45 with 4H2687-AA; 1 with 4H2705-AA; 1.97 with 4H2758-AA. In addition, the interaction score in the assay with 4H278-AA is 1.7; with 4H2873-AA, -0.478; in the assay with 4H2985-AA it was 0.682; with 4H3134-AA, -0.974; in the assay with 4H3409-AA, 1.43; in the assay with 4H3595-AA, 0.594. Moreover, the interaction score in the assay with 4H3625-AA is -0.183; in the assay with 4H390-AA, 2.39; in the assay with 4H3940-AA, -1.57; with 4H510-AA it was -1.24; with 4H775-AA, -1.43; in the assay with 4H816-AA it was -0.563. The molecule also had an interaction score with 4H87-AA of -1.84.

B2: 4H4073-bA (peptide)
chain: DKNAQLKQKNAELKQKIAELKWEIAQLEQ
As to B2, the interaction score was -0.968 with 4H4073-bA; -1.06 with 4H457-bA; -1.51 with 4H575-bA; -0.684 in the assay with 4H683-bA; -1.31 in the assay with 4H754-bA; -1.4 with 4H780-bA. Further, the interaction score is -1.27 with 4H797-bA; -1.17 with 4H855-bA; -0.789 with 4H918-bA; -1.71 with 4H949-bN; -1.91 with 4H953-bA; -1.01 with 4H968-bA. The interaction score in the assay with P3mSN was -4.32.

B3: P3mSN (peptide)
chain: DEIQQLEEEISQLEQKNSELKEKNQELKY
For B3, the interaction score with P3mSN was -0.0204; in the assay with P5mSN, -0.781; in the assay with P6mSN, -0.522; in the assay with P7mSN, -0.239; with P8mSN it was -0.172; in the assay with P9mSN, -0.0425.

B4: P4mS (peptide)
chain: KISQLKQKIQQLKQENQQLEEENSQLEYG
On to B4, for which the interaction score with P4mS is -3.22; in the assay with P5SC1, -2.92; with P5SC2, -2.82; in the assay with P5, -3.02; in the assay with P5mS, -2.9; with P6SC1, -2.65. Also, the interaction score with P6SC2 was -2.64; in the assay with P6, -2.75; in the assay with P6mS, -3; with P7, -2.78; in the assay with P7mS, -2.94; with P8 it was -2.9. Besides, the interaction score with P8mS is -2.9; with P9, -2.65.

The values above are taken from paper PMC10397247.
